# Results published in patent publication US20240052055A1.
# Assays:
# [1] = molecular target: human GPC3 (Gln25-His559)-His protein (Acro, Cat. No. GP3-H52H4) (human) (UniProt P51654); assay: ELISA; antibody 0.001 nM
# [2] = molecular target: human GPC3 (Gln25-His559)-His protein (Acro, Cat. No. GP3-H52H4) (human) (UniProt P51654); assay: ELISA; antibody 0.001 nM; remark: listed apart in the source
# [3] = molecular target: mouse GPC3-His protein (Sino Biological, Cat. No. 50989-M08B) (mouse) (UniProt Q8CFZ4); assay: ELISA; antibody 0.001 nM
# [4] = molecular target: monkey GPC3-His protein (Acro, Cat. No. GP3-05225) (monkey) (UniProt A5A6P7); assay: ELISA; antibody 0.001 nM
# [5] = molecular target: human GPC3 (Gln25-His559)-His protein (Acro, Cat. No. GP3-H52H4) (human) (UniProt P51654); assay: ELISA; antibody 0.0001 nM
# [6] = molecular target: mouse GPC3-His protein (Sino Biological, Cat. No. 50989-M08B) (mouse) (UniProt Q8CFZ4); assay: ELISA; antibody 0.0001 nM
# [7] = molecular target: monkey GPC3-His protein (Acro, Cat. No. GP3-05225) (monkey) (UniProt A5A6P7); assay: ELISA; antibody 0.0001 nM
# [8] = molecular target: human GPC3 (Gln25-His559)-His protein (Acro, Cat. No. GP3-H52H4) (human) (UniProt P51654); assay: ELISA; antibody 0.01 nM
# [9] = molecular target: mouse GPC3-His protein (Sino Biological, Cat. No. 50989-M08B) (mouse) (UniProt Q8CFZ4); assay: ELISA; antibody 0.01 nM
# [10] = molecular target: human GPC3 (Gln25-His559)-His protein (Acro, Cat. No. GP3-H52H4) (human) (UniProt P51654); assay: ELISA; antibody 0.1 nM
# [11] = molecular target: monkey GPC3-His protein (Acro, Cat. No. GP3-05225) (monkey) (UniProt A5A6P7); assay: ELISA; antibody 0.1 nM
# [12] = molecular target: human GPC3 (Gln25-His559)-His protein (Acro, Cat. No. GP3-H52H4) (human) (UniProt P51654); assay: ELISA; antibody 10 nM
# [13] = molecular target: human GPC3 (Gln25-His559)-His protein (Acro, Cat. No. GP3-H52H4) (human) (UniProt P51654); assay: ELISA; antibody 100 nM
# [14] = molecular target: human GPC3 (Gln25-His559)-His protein (Acro, Cat. No. GP3-H52H4) (human) (UniProt P51654); assay: ELISA; antibody 1 nM
# [15] = molecular target: human GPC3 on cells (HepG2 endogenous; CHO-K1 recombinant clones CHOK1-hGPC3.1C3, 2B5, 3E9) (human) (UniProt P51654); assay: FACS on HepG2 cells
# [16] = molecular target: human GPC3 (Gln25-His559)-His protein (Acro, Cat. No. GP3-H52H4) (human) (UniProt P51654); assay: ELISA; antibody 1 nM; remark: listed apart in the source
# [17] = molecular target: mouse GPC3-His protein (Sino Biological, Cat. No. 50989-M08B) (mouse) (UniProt Q8CFZ4); assay: ELISA; antibody 1 nM
# [18] = molecular target: monkey GPC3-His protein (Acro, Cat. No. GP3-05225) (monkey) (UniProt A5A6P7); assay: ELISA; antibody 1 nM
# [19] = molecular target: human GPC3 on cells (HepG2 endogenous; CHO-K1 recombinant clones CHOK1-hGPC3.1C3, 2B5, 3E9) (human) (UniProt P51654); assay: FACS on CHOK1-hGPC3.2B5 cells
# [20] = molecular target: human GPC3 on cells (HepG2 endogenous; CHO-K1 recombinant clones CHOK1-hGPC3.1C3, 2B5, 3E9) (human) (UniProt P51654); assay: FACS on CHO-K1-human GPC3 cells
# [21] = molecular target: human GPC3 (Gln25-His559)-His protein (Acro, Cat. No. GP3-H52H4) (human) (UniProt P51654); assay: ELISA; antibody 100 nM; remark: listed apart in the source
# [22] = molecular target: mouse GPC3-His protein (Sino Biological, Cat. No. 50989-M08B) (mouse) (UniProt Q8CFZ4); assay: ELISA; antibody 100 nM
# [23] = molecular target: monkey GPC3-His protein (Acro, Cat. No. GP3-05225) (monkey) (UniProt A5A6P7); assay: ELISA; antibody 100 nM
# [24] = molecular target: human GPC3 (Gln25-His559)-His protein (Acro, Cat. No. GP3-H52H4) (human) (UniProt P51654); assay: ELISA; antibody 10 nM; remark: listed apart in the source
# [25] = molecular target: mouse GPC3-His protein (Sino Biological, Cat. No. 50989-M08B) (mouse) (UniProt Q8CFZ4); assay: ELISA; antibody 10 nM
# [26] = molecular target: monkey GPC3-His protein (Acro, Cat. No. GP3-05225) (monkey) (UniProt A5A6P7); assay: ELISA; antibody 10 nM
# [27] = molecular target: human GPC3 on cells (HepG2 endogenous; CHO-K1 recombinant clones CHOK1-hGPC3.1C3, 2B5, 3E9) (human) (UniProt P51654); assay: FACS on CHOK1-hGPC3.1C3 cells
# [28] = molecular target: human GPC3 (Gln25-His559)-His protein (Acro, Cat. No. GP3-H52H4) (human) (UniProt P51654); assay: ELISA; antibody 0.0001 nM; remark: listed apart in the source
# [29] = molecular target: human GPC3 (Gln25-His559)-His protein (Acro, Cat. No. GP3-H52H4) (human) (UniProt P51654); assay: ELISA; antibody 0.1 nM; remark: listed apart in the source
# [30] = molecular target: monkey GPC3 on HEK293T cells (monkey); assay: FACS on HEK293T-monkey GPC3 cells
# [31] = molecular target: human GPC3 on cells (HepG2 endogenous; CHO-K1 recombinant clones CHOK1-hGPC3.1C3, 2B5, 3E9) (human) (UniProt P51654); assay: FACS on CHOK1-hGPC3.3E9 cells
# [32] = molecular target: human GPC3 (Gln25-His559)-His protein (Acro, Cat. No. GP3-H52H4) (human) (UniProt P51654); assay: ELISA; antibody 0.01 nM; remark: listed apart in the source
# [33] = molecular target: human GPC3 on cells (HepG2 endogenous; CHO-K1 recombinant clones CHOK1-hGPC3.1C3, 2B5, 3E9) (human) (UniProt P51654); assay: FACS on HepG2 cells; remark: listed apart in the source
# Chain of UniProt A5A6P7 (A5A6P7 other isoform, or with tags, fused parts or gaps limits assumed): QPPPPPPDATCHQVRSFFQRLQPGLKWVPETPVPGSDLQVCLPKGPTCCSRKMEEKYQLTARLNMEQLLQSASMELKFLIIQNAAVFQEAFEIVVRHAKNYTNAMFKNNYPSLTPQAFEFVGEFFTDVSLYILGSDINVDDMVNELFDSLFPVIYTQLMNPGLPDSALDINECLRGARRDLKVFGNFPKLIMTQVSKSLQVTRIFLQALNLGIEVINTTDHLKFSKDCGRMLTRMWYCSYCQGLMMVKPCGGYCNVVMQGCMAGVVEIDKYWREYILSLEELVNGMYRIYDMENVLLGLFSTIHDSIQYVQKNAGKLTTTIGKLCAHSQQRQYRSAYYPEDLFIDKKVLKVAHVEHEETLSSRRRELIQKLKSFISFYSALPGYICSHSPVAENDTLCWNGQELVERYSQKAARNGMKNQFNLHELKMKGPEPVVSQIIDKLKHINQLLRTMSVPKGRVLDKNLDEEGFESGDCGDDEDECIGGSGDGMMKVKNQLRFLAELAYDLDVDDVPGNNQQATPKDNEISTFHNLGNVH
# Chain of UniProt Q8CFZ4 (Q8CFZ4 25-558 limits assumed): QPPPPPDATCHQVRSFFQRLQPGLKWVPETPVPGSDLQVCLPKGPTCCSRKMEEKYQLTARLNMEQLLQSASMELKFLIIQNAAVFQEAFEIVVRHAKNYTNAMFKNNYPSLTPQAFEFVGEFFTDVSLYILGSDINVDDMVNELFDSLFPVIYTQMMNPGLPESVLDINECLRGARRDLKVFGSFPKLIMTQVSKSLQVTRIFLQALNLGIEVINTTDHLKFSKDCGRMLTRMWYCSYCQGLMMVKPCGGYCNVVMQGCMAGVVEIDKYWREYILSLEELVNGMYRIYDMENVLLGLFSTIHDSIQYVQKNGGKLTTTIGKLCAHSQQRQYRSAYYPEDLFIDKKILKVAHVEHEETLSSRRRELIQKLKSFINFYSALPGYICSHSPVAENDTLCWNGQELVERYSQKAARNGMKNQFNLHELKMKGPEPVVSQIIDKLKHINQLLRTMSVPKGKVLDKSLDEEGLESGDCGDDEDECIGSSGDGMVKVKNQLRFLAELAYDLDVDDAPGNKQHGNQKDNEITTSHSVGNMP
# Chain of monkey GPC3 on HEK293T cells (monkey) (chain, as listed by the source limits assumed): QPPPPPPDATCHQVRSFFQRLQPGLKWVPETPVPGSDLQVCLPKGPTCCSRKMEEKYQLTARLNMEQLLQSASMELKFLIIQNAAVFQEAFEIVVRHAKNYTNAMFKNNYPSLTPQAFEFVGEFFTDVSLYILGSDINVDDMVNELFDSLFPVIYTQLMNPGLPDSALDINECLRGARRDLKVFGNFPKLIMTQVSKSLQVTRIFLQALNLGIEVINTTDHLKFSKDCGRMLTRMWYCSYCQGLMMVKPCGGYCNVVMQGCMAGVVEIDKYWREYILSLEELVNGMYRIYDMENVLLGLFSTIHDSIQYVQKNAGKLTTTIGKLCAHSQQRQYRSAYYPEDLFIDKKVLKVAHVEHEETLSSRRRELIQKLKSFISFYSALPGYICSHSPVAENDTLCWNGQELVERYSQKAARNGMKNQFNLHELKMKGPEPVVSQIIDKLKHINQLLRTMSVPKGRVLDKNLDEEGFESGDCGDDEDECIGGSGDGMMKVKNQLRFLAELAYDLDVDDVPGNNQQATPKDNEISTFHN
substance,measurement,setting,value
human IgG1 (IgG subtype control) (antibody),OD450,[1],0.048
same,OD450,[2],0.06
same,OD450,[3],0.051
same,OD450,[4],0.044
same,OD450,[5],0.06
same,OD450,[6],0.049
same,OD450,[7],0.048
same,OD450,[8],0.06
same,OD450,[9],0.052
same,OD450,[10],0.06
same,OD450,[11],0.045
same,OD450,[12],0.1
same,OD450,[13],0.44
same,OD450,[14],0.06
same,Max MFI,[15],124
same,OD450,[16],0.048
same,OD450,[17],0.05
same,OD450,[18],0.044
same,Mean fluorescence density of cells,[19],19.3
same,Max MFI,[20],88
same,OD450,[21],0.072
same,OD450,[22],0.105
same,OD450,[23],0.056
same,OD450,[24],0.05
same,OD450,[25],0.055
same,OD450,[26],0.047
same,Mean fluorescence density of cells,[27],19.3
same,OD450,[28],0.047
same,OD450,[29],0.05
same,Max MFI,[30],107
same,Mean fluorescence density of cells,[31],19.3
same,OD450,[32],0.048
same,Max MFI,[33],155
